In publication PMC8976148, “Long-range structural preformation in yes-associated protein precedes encounter complex formation with TEAD” (iScience, 2022):
Substitutions are numbered along the chain they refer to.

B1: YAP^50-171 (domain or fragment, UniProt P46937 50-171, looked up)
chain: AGHQIVHVRGDSETDLEALFNAVMNPKTANVPQTVPMRLRKLPDSFFKPPEPKSHSRQASTDAGTAGALTPQHVRAHSSPASLQLGAVSPGTLTPTGVVSGPAATPTAQHLRQSSFEIPDDV
notes: YAP (Yes-associated protein), residues 50-171; 15N-labelled in the intermolecular PRE control; also called YAP^wt; Yes-associated protein; source: E. coli Tuner(DE3), purified (HisTrap FF, 3C protease cleavage, heating to 90°C, size exclusion); not shown: His6, N-terminal, cleaved
B2: YAP^50-171 K90C (domain or fragment, UniProt P46937 50-171, looked up)
chain: B1 chain with K41C
notes: YAP (Yes-associated protein), residues 50-171; source: E. coli Tuner(DE3), purified (HisTrap FF, 3C protease cleavage, heating to 90°C, size exclusion; buffers with 1 mM DTT); not shown: His6, N-terminal, cleaved
B3: YAP^50-171 S149C (domain or fragment, UniProt P46937 50-171, looked up)
chain: B1 chain with S100C
notes: as for B2
B4: YAP^50-171 S103C (domain or fragment, UniProt P46937 50-171, looked up)
chain: B1 chain with S54C
notes: as for B2
B5: YAP^50-171 S164C (domain or fragment, UniProt P46937 50-171, looked up)
chain: B1 chain with S115C
notes: as for B2
B6: YAP^50-171 S138C (domain or fragment, UniProt P46937 50-171, looked up)
chain: B1 chain with S89C
notes: as for B2
B7: YAP^50-171 S127C (domain or fragment, UniProt P46937 50-171, looked up)
chain: B1 chain with S78C
notes: as for B2
B8: YAP^50-171 A71C (domain or fragment, UniProt P46937 50-171, looked up)
chain: B1 chain with A22C
notes: as for B2
B9: YAP^50-171 T119C (domain or fragment, UniProt P46937 50-171, looked up)
chain: B1 chain with T70C
notes: as for B2
B10: YAP^50-171 D60C (domain or fragment, UniProt P46937 50-171, looked up)
chain: B1 chain with D11C
notes: as for B2
B11: YAP^50-171 Q158C (domain or fragment, UniProt P46937 50-171, looked up)
chain: B1 chain with Q109C
notes: as for B2
B12: YAP^50-171 V80C (domain or fragment, UniProt P46937 50-171, looked up)
chain: B1 chain with V31C
notes: as for B2

The binders below were run against T1, Biotinylated N-Avitagged-TEAD4^217-434 (UniProt Q15561 217-434, biotin (biotinylated Avitag)) (assay: FRET or BRET; TR-FRET competition: biotinylated N-Avitagged TEAD4 217-434 (1 nM) on LANCE Eu-W1024 streptavidin (0.5 nM), Cy5-labelled YAP as tracer, serial dilutions of the YAP proteins; 50 mM HEPES pH 7.4, 100 mM KCl, 0.05% Tween-20, 0.25 mM TCEP, 0.05% BSA, 2% DMSO; 1 h at room temperature). Details: both partners purified.
T1 construct: TEAD4, residues 217-434; not shown: Avitag, N-terminal, kept
T1 sequence (Q15561 217-434): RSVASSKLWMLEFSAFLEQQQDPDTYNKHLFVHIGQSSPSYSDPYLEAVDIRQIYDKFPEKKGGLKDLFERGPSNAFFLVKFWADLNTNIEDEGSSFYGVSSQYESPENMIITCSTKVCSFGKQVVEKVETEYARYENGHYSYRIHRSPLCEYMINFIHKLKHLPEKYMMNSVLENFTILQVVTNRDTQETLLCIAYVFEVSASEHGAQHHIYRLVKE

Binding result, binds:
B1
B2
B3
B4
B5
B6
B7
B8
B9
B10
B11
B12
